What all share (conditions): both partners purified
One assay deals with His-LC3A (human, UniProt Q9H492 1-121). As to the kind of experiment: ITC; 0.6 mM peptide titrated into 0.06 mM His-LC3/GABARAP protein in 20 steps at 25 °C; 50 mM Tris pH 7.0, 25 mM NaCl; one-site binding model. In general terms: In ITC the heat of successive injections is recorded.
Another assay has as its target His-GABARAP (human, UniProt O95166 1-117). Described as above.
The target in the next assay is His-GABARAPL1 (human, UniProt Q9H0R8 1-117). The description is as above.
The target of another assay is His-GABARAPL2 (human, UniProt P60520 1-117). The description is as above.
Assay [1] concerns the target T1, His-FLAG-hEPG5 (human EPG5, full length, wild type) (human, UniProt Q9HCE0 1-2579).
T1 construct: His-FLAG tag from a modified pFastBacHTB; also called hEPG5^WT; ectopic P-granules autophagy protein 5
Put plainly: pull-down; co-purification: His-FLAG-hEPG5 bound to Ni-NTA resin, GST-GABARAP applied, washed, eluted with imidazole; 50 mM Na phosphate pH 7.4, 150 mM NaCl, 0.01% TWEEN 20, 5% glycerol; complex seen on SDS-PAGE and by negative stain EM 2D class averages.

Another assay has as its target T2, hEPG5^Δ1–548 (human, UniProt Q9HCE0 549-2579).
T2 construct: also called truncated hEPG5 devoid of the region between the N-terminus and the two LIR motifs
As to the kind of experiment: pull-down; GST pull-down: purified GST-LC3A/B/C or GST-GABARAP/L1/L2 bait (200–240 µg) on glutathione resin, purified His-FLAG-hEPG5 or mutant (25–30 µg) as prey; 50 mM Tris pH 8.0, 150 mM NaCl, 5% glycerol, 0.01% Tween20, 0.5 mM DTT, 4 °C; anti-FLAG fluorescence western blot. In general terms: In western blotting, separated proteins are transferred to a membrane and probed.

A further assay deals with T3, hEPG5^W567A (human, UniProt Q9HCE0 1-2579, W567A).
T3 construct: also called LIR2 mutant
The assay is described as above.

In a further assay the target is T4, hEPG5^F794A (human, UniProt Q9HCE0 1-2579, F794A).
T4 construct: also called third LIR motif mutant
The assay is described as above.

A further assay has as its target T5, hEPG5^Δ1770–2579 (human, UniProt Q9HCE0 1-1769).
T5 construct: also called truncated hEPG5 lacking the entire C-terminal region
The description is as above.

For another assay, the target named is T6, hEPG5^Q336R (human, UniProt Q9HCE0 1-2579, Q336R).
T6 construct: human EPG5, full length, with the Vici syndrome missense mutation Q336R (c.1007A>G); also called Gln336Arg; Vici syndrome mutant
The assay is described as above.

The next assay has as its target His-LC3B (human, UniProt Q9GZQ8 1-120). As to the kind of experiment: ITC; 0.6 mM peptide titrated into 0.06 mM His-LC3/GABARAP protein in 20 steps at 25 °C; 50 mM Tris pH 7.0, 25 mM NaCl; one-site binding model.

His-GABARAPL2, sequence (P60520 whole entry): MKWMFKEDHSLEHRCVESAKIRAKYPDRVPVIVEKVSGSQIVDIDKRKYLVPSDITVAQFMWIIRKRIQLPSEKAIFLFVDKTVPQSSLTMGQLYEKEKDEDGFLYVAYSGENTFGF
T6 sequence (Q9HCE0 whole entry Q336R): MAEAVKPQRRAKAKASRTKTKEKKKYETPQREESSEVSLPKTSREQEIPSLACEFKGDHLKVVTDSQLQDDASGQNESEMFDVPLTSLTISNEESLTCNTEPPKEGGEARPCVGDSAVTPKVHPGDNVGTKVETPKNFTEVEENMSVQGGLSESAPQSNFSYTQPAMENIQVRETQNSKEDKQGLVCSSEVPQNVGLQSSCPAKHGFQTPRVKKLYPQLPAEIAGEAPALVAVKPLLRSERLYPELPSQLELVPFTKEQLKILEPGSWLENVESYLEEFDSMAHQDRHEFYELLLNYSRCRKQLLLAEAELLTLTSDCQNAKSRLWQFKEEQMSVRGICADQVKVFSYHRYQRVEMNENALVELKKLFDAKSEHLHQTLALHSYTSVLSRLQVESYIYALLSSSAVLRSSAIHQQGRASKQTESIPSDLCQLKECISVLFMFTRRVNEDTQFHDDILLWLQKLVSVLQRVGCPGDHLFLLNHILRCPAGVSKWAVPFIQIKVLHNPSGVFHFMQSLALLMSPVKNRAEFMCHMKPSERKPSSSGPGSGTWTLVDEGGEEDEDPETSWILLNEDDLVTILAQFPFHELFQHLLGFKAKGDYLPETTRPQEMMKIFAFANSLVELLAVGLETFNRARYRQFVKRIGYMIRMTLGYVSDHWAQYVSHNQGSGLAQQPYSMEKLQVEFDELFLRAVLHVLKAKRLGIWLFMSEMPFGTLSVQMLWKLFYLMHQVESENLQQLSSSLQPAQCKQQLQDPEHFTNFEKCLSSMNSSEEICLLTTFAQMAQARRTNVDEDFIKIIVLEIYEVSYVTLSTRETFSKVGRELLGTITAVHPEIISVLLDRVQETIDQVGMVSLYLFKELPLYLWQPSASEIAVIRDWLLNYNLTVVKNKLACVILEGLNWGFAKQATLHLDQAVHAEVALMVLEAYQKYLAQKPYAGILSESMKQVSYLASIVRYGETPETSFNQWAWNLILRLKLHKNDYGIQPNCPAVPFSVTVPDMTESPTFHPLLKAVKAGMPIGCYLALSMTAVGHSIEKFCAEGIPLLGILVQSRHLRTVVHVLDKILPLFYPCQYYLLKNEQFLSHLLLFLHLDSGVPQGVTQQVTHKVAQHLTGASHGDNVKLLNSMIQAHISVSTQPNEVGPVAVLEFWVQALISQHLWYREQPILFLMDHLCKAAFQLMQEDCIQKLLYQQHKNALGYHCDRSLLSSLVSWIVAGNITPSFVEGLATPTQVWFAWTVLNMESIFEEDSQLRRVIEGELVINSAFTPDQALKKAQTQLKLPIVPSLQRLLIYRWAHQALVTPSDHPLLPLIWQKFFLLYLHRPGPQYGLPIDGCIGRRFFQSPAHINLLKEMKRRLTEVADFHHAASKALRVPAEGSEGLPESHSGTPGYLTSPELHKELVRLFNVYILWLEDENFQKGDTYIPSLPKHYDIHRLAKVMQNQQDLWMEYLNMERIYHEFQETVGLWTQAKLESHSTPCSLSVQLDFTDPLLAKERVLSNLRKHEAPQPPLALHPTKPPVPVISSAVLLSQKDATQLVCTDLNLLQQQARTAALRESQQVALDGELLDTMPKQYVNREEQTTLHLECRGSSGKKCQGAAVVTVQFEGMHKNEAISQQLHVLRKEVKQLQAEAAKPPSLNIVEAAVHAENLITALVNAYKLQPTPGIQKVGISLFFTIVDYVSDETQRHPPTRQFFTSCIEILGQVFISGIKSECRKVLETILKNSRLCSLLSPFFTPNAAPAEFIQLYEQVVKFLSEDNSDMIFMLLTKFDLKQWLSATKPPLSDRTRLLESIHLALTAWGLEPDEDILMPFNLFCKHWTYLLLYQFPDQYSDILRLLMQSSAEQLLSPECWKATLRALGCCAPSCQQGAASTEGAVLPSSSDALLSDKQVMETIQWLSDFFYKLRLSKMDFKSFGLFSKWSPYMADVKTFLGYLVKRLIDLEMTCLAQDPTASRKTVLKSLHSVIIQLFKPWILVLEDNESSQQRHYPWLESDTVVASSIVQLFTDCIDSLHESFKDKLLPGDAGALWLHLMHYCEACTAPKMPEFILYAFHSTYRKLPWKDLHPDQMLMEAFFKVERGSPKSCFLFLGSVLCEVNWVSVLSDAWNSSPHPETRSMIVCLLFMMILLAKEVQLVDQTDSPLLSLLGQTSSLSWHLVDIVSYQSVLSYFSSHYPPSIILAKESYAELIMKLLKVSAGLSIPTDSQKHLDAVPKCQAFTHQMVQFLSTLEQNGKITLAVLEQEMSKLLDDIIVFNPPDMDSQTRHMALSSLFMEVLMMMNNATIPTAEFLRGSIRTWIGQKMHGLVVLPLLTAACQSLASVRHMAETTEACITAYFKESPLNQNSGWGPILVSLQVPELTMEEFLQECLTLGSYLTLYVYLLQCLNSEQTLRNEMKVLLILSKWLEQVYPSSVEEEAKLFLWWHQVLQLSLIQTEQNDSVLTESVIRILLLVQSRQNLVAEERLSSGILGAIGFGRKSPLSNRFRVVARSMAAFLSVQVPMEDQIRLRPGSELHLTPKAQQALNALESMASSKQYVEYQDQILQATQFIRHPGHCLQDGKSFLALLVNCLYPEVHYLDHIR
T4 sequence (Q9HCE0 whole entry F794A): as the sequence (Q9HCE0 whole entry Q336R) above, with R336Q, F794A counted along it
His-GABARAPL1, sequence (Q9H0R8 whole entry): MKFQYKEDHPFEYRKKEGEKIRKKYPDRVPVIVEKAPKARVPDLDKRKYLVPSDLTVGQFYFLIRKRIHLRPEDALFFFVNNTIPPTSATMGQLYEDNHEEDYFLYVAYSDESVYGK
T2 sequence (Q9HCE0 549-2579, stated change not applied): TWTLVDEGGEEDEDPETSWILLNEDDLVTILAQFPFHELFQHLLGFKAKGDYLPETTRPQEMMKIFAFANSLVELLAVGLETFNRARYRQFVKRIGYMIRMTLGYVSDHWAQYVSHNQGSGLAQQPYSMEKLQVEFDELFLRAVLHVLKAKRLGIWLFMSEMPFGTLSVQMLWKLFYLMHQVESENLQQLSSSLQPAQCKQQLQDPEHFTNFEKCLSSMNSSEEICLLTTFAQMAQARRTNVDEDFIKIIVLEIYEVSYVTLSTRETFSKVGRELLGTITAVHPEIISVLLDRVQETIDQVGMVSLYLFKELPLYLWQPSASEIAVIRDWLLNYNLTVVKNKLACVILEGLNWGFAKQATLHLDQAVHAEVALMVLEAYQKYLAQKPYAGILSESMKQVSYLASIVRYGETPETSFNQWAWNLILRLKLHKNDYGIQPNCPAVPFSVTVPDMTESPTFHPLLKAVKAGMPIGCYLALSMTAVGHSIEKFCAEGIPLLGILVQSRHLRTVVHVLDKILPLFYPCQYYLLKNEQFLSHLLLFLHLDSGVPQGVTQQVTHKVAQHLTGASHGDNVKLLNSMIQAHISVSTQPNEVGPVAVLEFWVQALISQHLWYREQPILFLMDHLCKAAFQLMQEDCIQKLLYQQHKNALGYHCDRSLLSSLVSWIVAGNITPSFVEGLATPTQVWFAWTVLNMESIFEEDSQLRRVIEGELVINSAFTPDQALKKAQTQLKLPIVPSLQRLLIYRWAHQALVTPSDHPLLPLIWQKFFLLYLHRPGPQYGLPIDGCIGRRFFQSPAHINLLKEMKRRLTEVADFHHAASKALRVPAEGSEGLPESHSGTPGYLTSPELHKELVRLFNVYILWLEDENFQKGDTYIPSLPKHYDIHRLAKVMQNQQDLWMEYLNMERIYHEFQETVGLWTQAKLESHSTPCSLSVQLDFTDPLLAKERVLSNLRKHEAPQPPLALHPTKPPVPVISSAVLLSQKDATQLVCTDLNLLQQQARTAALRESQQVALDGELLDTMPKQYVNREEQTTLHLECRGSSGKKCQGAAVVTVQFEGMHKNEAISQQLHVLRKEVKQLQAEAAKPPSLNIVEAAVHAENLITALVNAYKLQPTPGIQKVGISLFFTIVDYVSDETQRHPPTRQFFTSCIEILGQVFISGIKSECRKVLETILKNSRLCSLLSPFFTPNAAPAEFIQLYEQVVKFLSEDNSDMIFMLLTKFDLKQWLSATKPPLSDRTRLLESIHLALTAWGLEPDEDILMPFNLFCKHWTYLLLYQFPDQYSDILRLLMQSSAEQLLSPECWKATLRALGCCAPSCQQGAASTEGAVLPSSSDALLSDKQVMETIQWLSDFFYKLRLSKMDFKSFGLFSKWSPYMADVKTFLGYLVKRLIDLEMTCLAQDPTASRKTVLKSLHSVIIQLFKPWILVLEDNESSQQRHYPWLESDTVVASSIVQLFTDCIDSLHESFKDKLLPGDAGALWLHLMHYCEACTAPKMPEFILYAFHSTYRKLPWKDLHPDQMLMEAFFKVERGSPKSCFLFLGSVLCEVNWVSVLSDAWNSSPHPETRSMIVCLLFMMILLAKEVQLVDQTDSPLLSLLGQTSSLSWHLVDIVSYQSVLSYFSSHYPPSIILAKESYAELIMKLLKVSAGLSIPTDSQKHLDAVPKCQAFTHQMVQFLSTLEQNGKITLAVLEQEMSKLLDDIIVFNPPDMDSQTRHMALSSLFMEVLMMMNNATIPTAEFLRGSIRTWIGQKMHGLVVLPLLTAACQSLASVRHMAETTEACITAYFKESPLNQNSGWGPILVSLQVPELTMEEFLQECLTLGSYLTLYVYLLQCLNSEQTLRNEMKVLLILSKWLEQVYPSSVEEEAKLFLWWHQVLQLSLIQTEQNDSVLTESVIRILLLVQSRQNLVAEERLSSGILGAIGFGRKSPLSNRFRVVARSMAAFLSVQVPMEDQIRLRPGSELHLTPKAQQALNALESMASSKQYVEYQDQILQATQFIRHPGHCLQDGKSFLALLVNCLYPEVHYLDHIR
T3 sequence (Q9HCE0 whole entry W567A): as the sequence (Q9HCE0 whole entry Q336R) above, with R336Q, W567A counted along it
T1 sequence (Q9HCE0 whole entry): as the sequence (Q9HCE0 whole entry Q336R) above, with R336Q counted along it

B1: hEPG5-LIR1 peptide (peptide)
peptide: GSGTWTLVDEG
notes: human EPG5 residues 546-556, holding the LIR1 motif 550WTLV553; source: synthetic peptide (LifeTein)
For the molecule B1, the “fold KD relative to LIR1-GABARAP” value with His-LC3A was determined as 3 times. The Kd with His-GABARAP amounted to 7.47 µM; in the assay with His-GABARAPL1 it was 8.54 µM; with His-GABARAPL2 it was 11.8 µM.

B2: GST-GABARAP (natural protein, human, UniProt O95166 1-117, looked up)
chain: MKFVYKEEHPFEKRRSEGEKIRKKYPDRVPVIVEKAPKARIGDLDKKKYLVPSDLTVGQFYFLIRKRIHLRAEDALFFFVNNVIPPTSATMGQLYQEHHEEDFFLYIAYSDESVYGL
Turning to B2, the binding result (in [1]; in the assay with hEPG5^Δ1–548; in the assay with hEPG5^W567A; with hEPG5^F794A; in the assay with hEPG5^Δ1770–2579; with hEPG5^Q336R) was “binds” each time.

Turning to DEDPETSWILLN (source: synthetic peptide (GenScript)) [hEPG5-LIR2 peptide], the Kd is 1.75 µM with His-LC3A, 4.07 µM in the assay with His-LC3B, 0.16 µM with His-GABARAP and 0.68 µM with His-GABARAPL2.

For orientation: Kd means the equilibrium constant for the complex coming apart.

For the origin of these results see PMC7935953, “Insights on autophagosome–lysosome tethering from structural and biochemical characterization of human autophagy factor EPG5” (Communications Biology, 2021).
